From patent US20220072120A1 (University of Washington, published 2022) come the findings set out here.

This assay addresses A/Hong_Kong/4801/2014 (H3N2) HA 1-676 Y98F GG lkr dn5B.SA (influenza A virus A/Hong_Kong/4801/2014 …). Briefly: in vitro co-assembly; SEC, SDS-PAGE of elution peaks, negative-stain EM.

B1: I53-dn5 A (designed binder)
chain: MGKYDGSKLRIGILHARWNAEIILALVLGALKRLQEFGVKRENIIIETVPGSFELPYGSKLFVEKQKRLGKPLDAIIPIGVLIKGSTMHFEYICDSTTHQLMKLNFELGIPVIFGVLTCLTDEQAEARAGLIEGKMHNHGEDWGAAAVEMATKFN
Regarding B1, the binding result is reported as “binds”.
